# Assay results taken from the nanobody polyreactivity screen of Harvey et al. (2022).
# Test: yeast display, Sf9 membrane polyspecificity reagent, FACS + sequencing; frameworks hold sequencing errors
# Procedure, shortened: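 In a synthetic yeast display library (Saccharomyces cerevisiae BJ5465), nanobody expression was induced with galactose for 36–48 hours. FACS gates were set low and high (top ~1%) using anti-HA fluorescence for expression and streptavidin fluorescence for binding of the Sf9 membrane reagent. Each polyreactivity label is drawn from the gate of origin.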
row,Sequence,polyreactivity (PSR sort gate)
1,QVQLVESGGGLVQAGGSLRLSCADSGFTFRYNAMGWYRQAPGKERELVAAISRSGGRTYYADSVKGRFTISRDNAKNTVYLQMNSLKPEDSAVYYCAAVAARITGYGYWGQGTQVTVSS,high polyreactivity
2,QVQLVESGGGLVQAGGSLRLSCADSGFTFVAYAMGWYRQAPGKERELVAVISRGGSTYYADSVKGRFTISRDNAKNTVYLQMNSLKPEDTAVYYCAATYIHSYGKFYYWGQGTQLTVSS,low polyreactivity
3,QVQLVESGGGLVQAGGSLRLSCADSGFTFYYSAMGWYRQAPGKEREVVAAISWGGGTTYYADSVKGRFTISRDNAKNTVYLQMNSLKPEDTAVFYCNAASSLPGYDYWGQGTQVTVSS,high polyreactivity
4,QVQLVESGGGLVQAGGSLRLSCADSGIIFYVYAMGWYRPAPGKEREWVAAISSGGRTKYADSVKGRFTISRDNAKNTVYLQMNSLKPEDTAVYYCAAKSVRRRLGYWGQGTQVTVSS,high polyreactivity
5,QVQLVESGGGLVQAGGSLRLSCADSGIISIFNVIGWYRQAPGKERELVASITGRGGSTFYADSVKGRFTISRDNAKNTVYLQMNILKPEDTAVYYCATDTGYTYPVTGLYDYWGQGTQVTVSS,low polyreactivity
6,QVQLVESGGGLVQAGGSLRLSCADSGITFFTYAMGRYRQAPGKERELVAAISGSGGSTYYADYVKWRFTISRDNAKNTVYLQMNSLKPEDTEVYYCAAEYTYGSPYDYWGQGTQVTVSS,low polyreactivity
7,QVQLVESGGGLVQAGGSLRLSCADSGITFGLYAMGWYRQAPGKERELVAAISSSGGRTYYADSVKGRFTISRDIAKKTVYLQMYSLKPEDTAVYVCATDTDGFAANRPAGDGDWGQGTQVTVSS,high polyreactivity
8,QVQLVESGGGLVQAGGSLRLSCADSGITFWRYAMGWYRHAPGKERELVAAISWSGGNTYYADSVKGRFTISRDNAKNTVYLQMNSLKPEDTAVYYCATSRTYVIYDYWGQGTQVTVSS,low polyreactivity
9,QVQLVESGGGLVQAGGSLRLSCADSGLIFGYYAMGGYRQAPGKERELVAAITSSGTSTYYADSVKGRFTISRDNAKNTVYLQMNSLKPEDTAVYYCAAQYIGKKRFNYWGQGTQVTVSS,high polyreactivity
10,QVQLVESGGGLVQAGGSLRLSCADSGLTFSVYTMGWYRQAPGKERELVAAITTSGGRTYYADSVKGRFTISRDNAKNTVYLQKNSLKPEDTAVYYCAAVRTGDTTGTMGYWGQGTQVTVSS,high polyreactivity
11,QVQLVESGGGLVQAGGSLRLSCADSGNIFSWYAMGWYRQAPGKERELVAAITWSGGTTYYADSVKGRFTISRDNAKNTVYLQMNSLKPEDTAVYYCAVFSRYRSGYYSWGQGTQVTVSS,high polyreactivity
12,QVQLVESGGGLVQAGGSLRLSCADSGRIFRDYAMGWYRQAPGKERELVAAISRSGGSTYYADSVKGRFTISRDNAKNTVYLQVNSLKPEDTAVFYCAAKYYYGGNGYWGQGTQVTVSS,low polyreactivity
13,QVQLVESGGGLVQAGGSLRLSCADSGRIFYSYTRGWYRPAPGKERELVAAIRKSGGRTYYADSVKGRFTISRDNAKNTVYLQMNSLKPEDTAVYYCATTNYELSYYYWGQGTQVTVSS,high polyreactivity
14,QVQLVESGGGLVQAGGSLRLSCADSGRIIYLNAMGLYRQAPGKERELVAAITRSAASTHYADSVKGRFTISRDNAKNTVYLQMNSLKPEDTAVYYCNARGYPKSWRYSRGYEYWGQGTQVTVSS,low polyreactivity
15,QVQLVESGGGLVQAGGSLRLSCADSGRTFKSYAMGWYRQAPGKERELVAAISSSGGRTFYADSVKGRFTISRDNAKNTVYLQMNSLKPEDTAVYYCNARGFYRGYTYYYWGQGTQVTVSS,high polyreactivity
16,QVQLVESGGGLVQAGGSLRLSCADSGRTFQRHARGWYRKAPGKEREFVAAISKSGGRTYYADSVKGRFTISRDTAKNTVSLQMNSLKPEDTAVYYCNRGSTHDLSHPELYGYWGQGTQVTVSS,high polyreactivity
17,QVQLVESGGGLVQAGGSLRLSCADSGRTFVSNAMGWYRQAPGKERELVAAISGSGGITYYADSVKGRFTISRDNAKNTVYLQMNSLKPEDTAVYYCNADSSGWFPFDYWGQGTQVTVSS,low polyreactivity
18,QVQLVESGGGLVQAGGSLRLSCADSGRTFWGYSMGCYRQAPGKERELVAAITWNGGRTYYADSVKGRFTISRDNAKNTVYLQMNSLKPEDTAVYYCAAGYPRFGYDYWGQGTQVTVSS,high polyreactivity
19,QVQLVESGGGLVQAGGSLRLSCADSGRTFWSNAMGWYRQAPGKERELVARIDSTYYADSVKGRFTISRDNAKNTVYLQMNSLKPEDTAVYYCNADTIYYAGDFRYDYWGQGTQVTVSS,low polyreactivity
20,QVQLVESGGGLVQAGGSLRLSCADSGRTFYGNARGWYRQAPGKERELVAAISISGGSTYYADSVKGRFTISRDNAKNTVYLQMNSLKPEDTAVYYCNAQEYYYYPYVYDSDYWGQGTQVTVSS,low polyreactivity
21,QVQLVESGGGLVQAGGSLRLSCADSGRTFYYYAMGWYRQAPGKEREFVAAITTRGGSTYYADSVKGRFTISRDNAKNTVYLQMNSLTPEDTAVYYCAARYTGRQGVYKTYYYWGQGTQVTVSS,high polyreactivity

row,Sequence,polyreactivity (PSR sort gate)
1,QVQLVESGGGLVQAGGSLRLSCADSGRTIGLNGMGWYRQAPGKERELVAGISWTGGSTNYADSVKGRFTFSRDNEKNTVYLQINSLKPEDTAVYYCAADFVYYVVNDFGWSYAYEYWGQGTQVTVSS,low polyreactivity
2,QVQLVESGGGLVQAGGSLRLSCADSGSIFDQYTMGWYRQAPGKERELVAGISSGGITNYADSVKGRFTISRDNAKNTVYLQMNSLKPEDTAVYYCAADNWYLAEYDYWGQGTQVTVSS,low polyreactivity
3,QVQLVESGGGLVQAGGSLRLSCADSGSIFEFNTMGWYRQAPGKERELVAAISSADTTNYADSVKGRFTISRDNAKNTVYLQMNSLKPEDTAVYYCNKELHLSATLRVLGFDYWGQGTQVTVSS,low polyreactivity
4,QVQLVESGGGLVQAGGSLRLSCADSGSIFFPYAMGWYRQAPGKERYLVAAISSGTSTYYADSVKGRFTISRDNAKNTVYLQMNSLKPEDTAVFYCNARHRRGRFTHDYDYWGQGTQVTVSS,low polyreactivity
5,QVQLVESGGGLVQAGGSLRLSCADSGSIFGPYAMGWYRQAPGKEREFVAAISRSGTRTNYADSVKGRFTISRDNAKNTVYLQMNSLKPEDTAVYYCNARYVSASRNRGKSRYDYWGLGTQVTVSS,high polyreactivity
6,QVQLVESGGGLVQAGGSLRLSCADSGSIFLIYAMGWYRQAPGKERELVATINRGDNTYYADSVKGRFTISRDNAKITVYLQMYSLKPEDTADGYWGQGTQVTGSS,low polyreactivity
7,QVQLVESGGGLVQAGGSLRLSCADSGSIFLRYAMGWYRQAPGKERELVAAISCRGGSTYYADSVKGRFTISRDNAKNTVYLQMNSQKPEDTAVYYCAAYRGRSLEYDYWGQGTQVNVSS,high polyreactivity
8,QVQLVESGGGLVQAGGSLRLSCADSGSIFTSNGMGWYRHAPGKERELVAAITSGTSTYYADSVKGRFTISRDNAKNTVYLQMNSLKPEDTAVYYCAAGRWWVYRYARYYYWGQGTQVTVSS,high polyreactivity
9,QVQLVESGGGLVQAGGSLRLSCADSGSIFVAYAMRWYRPAPGKERELVAAISSSGGTTYYADSVKGRFTISRDNAKNTVYLQMNSLKPEDTAVYYSAARDYKYYYWGQGTQVTVSS,high polyreactivity
10,QVQLVESGGGLVQAGGSLRLSCADSGSIFYVYAMGWYRQAPGKERELVATISSSAGSTYYADSVKGRFTISRDNAKNTVYLQMNSLKPEDTAVYYCNADSFLSWVYRYVYYGSGYWGQGTQVTVSS,low polyreactivity
11,QVQLVESGGGLVQAGGSLRLSCADSGSILIYNAMGWYRQAPGKERELVAGISRRGASTYYADSVKGRFTISRDNAKNTVSLQMNSLKQEDTAVYYCAALGKYIVAWSGDYWGQGTQVTVSS,low polyreactivity
12,QVQLVESGGGLVQAGGSLRLSCADSGSTFDSYAMGWYRQAPGKERELVASITSRGGRTYYADSVKGRFTISRDNAKNTVYLQMNSLKPEDTALYYCNAYRRNYYYYQRHGYWGQGTQVTVSS,high polyreactivity
13,QVQLVESGGGLVQAGGSLRLSCADSGSTFGFYAMGWYRKAPGKERELVAAISSSGSTYYADSVKGRFTISRDNAKNTVYLQMNILKPEDTAFYSCGAHPGYYDYDYWGQGTQVTVSS,low polyreactivity
14,QVQLVESGGGLVQAGGSLRLSCADSGSTFGLYAMGGYRQSPGKEREMVAAITWGGGSTYYADSVKVRFTISRDNAKNTVYFQMNSLKPEDTAVYYCAASPIYPVYRRHGYWGQGTQVTVSW,high polyreactivity
15,QVQLVESGGGLVQAGGSLRLSCADSGSTFLYYAIVWYRQAPGKERELVASITGSGSNTYYADSVKGRFTISRDNAKNTVYLQMNSLKPEDTAVYYCASDPQSDIPSWLWYWGEYDYWGQGTQVTVSS,low polyreactivity
16,QVQLVESGGGLVQAGGSLRLSCADSGSTFNIYAMGWYRQAPGKERELVAAISSGGTTYYADSVKGRFTISRDNAKNTVYLQMNSLKPEDTAVYYCAALTSSLPAYGYWGQGTQVTVSS,low polyreactivity
17,QVQLVESGGGLVQAGGSLRLSCADSGSTFPYYTMGWYRQAPGKEREFVAAISRSTGRTSYADSVKGRFTISRDNAKNTVYLQMNSVKPEDSAVYDCAVRWYYYRDDTIYVLGRYDYWGQGTQVSVSS,high polyreactivity
18,QVQLVESGGGLVQAGGSLRLSCADSGSTFYRNAMGWYRQAPGKERELVASINNRGSTYYADSVKGRFTISRDNAKNTVYLQMNRLKPEDTAVYYFAATESWDYDYWGQGTQVTVSS,low polyreactivity
19,QVQLVESGGGLVQAGGSLRLSCADSGSTIFGNAMGWYRQAPGKERELVAAISYSGDSTYYADSVKGRFTISRDNAMNTVYLQMNSLKPEDTAVYYCAAGFVIKYDFWGQGTQVTVSS,low polyreactivity
20,QVQLVESGGGLVQAGGSLRLSCADSGSTLRRNAMGWYRQAPGKERELVAAISRTGASTYYADSVKGRFTISRDNAKNTVYLQMNSLKPEDTAVYYCAARANYIFFGMDYWGQGTQVTVSS,high polyreactivity
